# Data as given in paper PMC7960994.
# Columns and labels:
# [1] = biological target: D474A-PfCpn60 (Plasmodium falciparum mitochondrial chaperonin 60, ATP hydrolysis-deficient mutant) (Plasmodium falciparum (isolate FCR-3/Gambia)); assay: negative stain electron microscopy
# [2] = biological target: D474A-PfCpn60 (Plasmodium falciparum mitochondrial chaperonin 60, ATP hydrolysis-deficient mutant) (Plasmodium falciparum (isolate FCR-3/Gambia)); assay: crystal structure; D474A-PfCpn60 with bound ATP; crystals from phosphate citrate buffer pH 4.4, 13% isopropanol, lithium sulfate; 3.69 Å; one heptameric ring in the asymmetric unit
substance,measurement,setting,value
"D474A-PfCpn60 (Plasmodium falciparum mitochondrial chaperonin 60, ATP hydrolysis-deficient mutant) (domain or fragment)",stoichiometry N,[1],7
same,stoichiometry N,[2],14
